One substance from patent US8642284B1, “Methods for identifying agents that alter NAD-dependent deacetylation activity of a SIR2 protein” (Massachusetts Institute of Technology, priority 1999, dated 2014) can be followed below.

The series concerns NC(=O)c1ccc[n+]([C@@H]2O[C@H](COP(=O)([O-])OP(=O)(O)OC[C@H]3O[C@@H](n4cnc5c(N)ncnc54)[C@H](O)[C@@H]3O)[C@@H](O)[C@H]2O)c1. Nature of the series: NAD-dependent deacetylation of di-acetylated H3 peptide by recombinant yeast Sir2p (HPLC). Type of series: biochemical. The settings on record: other: reaction about 50% of maximal level; pH 9.0. How it is done: The typical reaction of Sir2 deacetylase activity was performed in 50 μl of buffer containing 50 mM Tris-HCl [pH 9.0], 4 mM MgCl2, 0.2 mM DTT, variable concentration of cold nicotinamide adenine dinucleotide (NAD) or NAD derivatives (SIGMA®, MO), 5-10 μg of the purified recombinant Sir2 proteins, and 10 μg of the histone H3 N-terminal tail peptide (amino acid 1-20) di-acetylated at positions 9 and 14 (Upstate Biotechnology™, NY). […] To detect the ADP-ribosylation activity, 8 μCi of NAD 5′-[α-^32P]triphosphate (˜1000 Ci/mmol, Amersham Pharmacia Biotech™, NJ) was added to the same reaction containing 1 μM cold NAD. Histone H3 protein (4 μg) (Roche Molecular Biochemicals™, IN) were used for this assay. All reaction mixtures were incubated at room temperature for 1 hr. Trichostatin A and coumermycin A1 (SIGMA™) were prepared in dimethylsulfoxide (DMSO, SIGMA®), and 5 μl of solvent or inhibitor was added to the reactions prior to adding Sir2 proteins.
After the incubation, the products were precipitated at −20° C. overnight by adding 50 μl of distilled water and 25 μl of 100% trichloroacetic acid (TCA) solution. […] The chromatograms at the absorbance of 210 nm were digitally recorded and analyzed by Hewlett Packard ChemStation™ system (version A.06.03 [509]). […] PTH amino acid chromatograms were recorded and analyzed by the ABI Model 610A2.1 data integration/analysis system. […]

On to Sir2p (Saccharomyces cerevisiae S288C), for which the Km (usually the substrate concentration at which the rate is half of its maximum) is 100 µM.
